According to US20250163183A1 (COAGULANT THERAPEUTICS, published 2025):

What was measured:
[1] = molecular target: T1, human APC-PPACK (active site-blocked APC) (human, UniProt P04070 43-461, active site bound by the tripeptide inhibitor Phe-Pro-Arg-chloromethylketone (PPACK)); test: ELISA
T1 construct: Bought (Haematologic Technologies)

[2] = molecular target: T2, human protein C (PC) zymogen (human, UniProt P04070 43-197; P04070 200-461); test: ELISA screen, PC-coated wells, OD450, n=2 [Continued]
T2 construct: Bought
T2 sequence (P04070 43-197, chain 1 of 2): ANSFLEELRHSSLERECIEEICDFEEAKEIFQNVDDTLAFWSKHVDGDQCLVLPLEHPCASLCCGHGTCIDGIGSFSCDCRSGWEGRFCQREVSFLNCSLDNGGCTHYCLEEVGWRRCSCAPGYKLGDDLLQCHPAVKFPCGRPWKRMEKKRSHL
T2 sequence (P04070 200-461, chain 2 of 2): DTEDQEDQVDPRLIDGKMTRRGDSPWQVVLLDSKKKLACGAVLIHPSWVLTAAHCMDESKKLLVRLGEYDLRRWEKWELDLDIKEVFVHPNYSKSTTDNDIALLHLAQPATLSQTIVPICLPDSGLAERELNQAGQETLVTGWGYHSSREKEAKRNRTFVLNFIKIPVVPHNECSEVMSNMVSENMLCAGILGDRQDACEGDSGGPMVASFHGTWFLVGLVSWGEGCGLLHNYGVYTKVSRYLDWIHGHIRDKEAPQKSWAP

T1 sequence (P04070 other isoform, or with tags, fused parts or gaps): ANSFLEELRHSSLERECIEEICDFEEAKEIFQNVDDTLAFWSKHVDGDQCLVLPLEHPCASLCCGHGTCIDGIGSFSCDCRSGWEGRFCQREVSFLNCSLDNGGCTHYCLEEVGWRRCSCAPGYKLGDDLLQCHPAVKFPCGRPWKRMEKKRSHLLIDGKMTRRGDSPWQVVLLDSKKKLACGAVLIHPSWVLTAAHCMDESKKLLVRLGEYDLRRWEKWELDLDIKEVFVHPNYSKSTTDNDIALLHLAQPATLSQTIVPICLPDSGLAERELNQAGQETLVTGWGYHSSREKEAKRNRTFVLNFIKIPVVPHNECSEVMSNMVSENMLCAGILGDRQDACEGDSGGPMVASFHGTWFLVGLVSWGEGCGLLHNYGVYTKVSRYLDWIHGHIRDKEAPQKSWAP

binding result [1] | binding result [2] | Binder
binds | no binding | SR16983-R2-P4-E11 (VHH) VHH: QLQLVESGGGLVQAGGSLRLSCAASGTTFSFVYMGWYRQAPGNQRDLVARISRDGSTNYLDSVKGRFTISGDNAKNTVYLQMNSLKPEDTARYYCFYNGHLNKWGRGTQVTVSS
binds | no binding | SR16983-R3-P4-E11 (VHH) VHH: QLQLVEFGGGLVQAGGSLRLSCAASGSTFSFNYMGWYRQAPGNQRDLVARISSGGITNYADSVKGRFTISGDNAKNTVYLQMNSLKPEDTARYYCFYNGYLNKWGQGTQVTVSS
binds | no binding | SR16983-R3P2D01 (VHH) VHH: QLQLVESGGGLVQAGGSLRLSCAASGTTSSFVYMGWYRQAPGNQRDLVARISSDGSTNYADSVKGRFTISGDNAKNTVYLQMNSLKPEDTARYYCFYNGHVNKWGQGTQVTVSS
binds | no binding | SR16983-R2-P4-E08 (VHH) VHH: QLQLVESGGGLVQAGGSLTLSCAASGFTLDDYAIGWFRQAPGKEREGVSCIATSDGSTYYADSVKGRFTISSDNAKNTVYLQMNSLKPEDTAVYYCARGGLLLPKPELFDFRGQGTQVTVSP
binds | no binding | SR16983-R3-P3-G04 (VHH) VHH: QLQLVESGGGLVQAGGSLRLSCTASGSTVRVTAGGWYRQAPGNERELVADIDNGGRPTYADSVKGRFTISRDNAKNAVDLQMNNLKPEDTAVYYCFVIAIPDSAPRPRAYWGQGTQVTVSS
binds | no binding | SR16983-R3-P4-G09 (VHH) VHH: QLQLVESGGGLVQAGGSLRLSCAASGSTVRVTAGGWYRQTPGNERELVADIDNGGSTTYADSVKGRFTISRDNAKNAVDLQMNSLKPEDTAVYRCFVIAIPDSAPRPRSYWGQGTEVTVSS
binds | no binding | SR16983-R2-P4-G08 (VHH) VHH: EVQLVESGGGLVQAGGSLRLSCAASGLTSSTYAMAWFRQAPGKEREFVSVIDWRGSTTYTNSVKGRFTISRDNGKNTVYLQMNSLQPEDTALYYCAARASPGYVGSLYPYWGRGTQVTVSS
binds | no binding | SR16983-R4-P1-C10 (VHH) VHH: QVQLVESGGGLVQAGGSLRLSCVAYGSTFSINVFAWYRQAPGEQRELGELVAFIGRSGTTKYGDSVKGRFTISRDNAKNTVYLQMDSLRPEDTAVYYCNLGDYWGQGTQVTVSS
binds | no binding | SR16983-R2-P4-F01 (VHH) VHH: QLQLVESGGGLVQAGGSLRLSCAASGRTFVGSYVMGWFRQAPGKAREFVAASSRSTGNTVYLDAVKGRFTVSRDDAKNTLYLQMSSLKPEDTAVYYCATRASINYNYANWPYWGQGTQVTVSS
binds | no binding | SR16983-R3P2A08 (VHH) VHH: QLQLVESGGGLVQPGGSLRLSCAASGFTFSTKWMYWVRQGPGKGLERVAAIDASGGSTYYADSVKGRFTISRDNSENTVYLQMNSLESADTAVYYCARSEGGLFRGRGTQVTVSA
binds | no binding | SR16983-R3P2A5 (VHH) VHH: QLQLVESGGGLVQPGGSLRLSCAASGFTFSTKWMYWVRQGPGKGLERVAAIDASGGSTYYADSVKGRFTISRDNSENTLYLQMNSLESADTAVYYCARSEGGLFRGRGTQVTVSA
binds | no binding | SR16983-R2-P3-F01 (VHH) VHH: EVQLVESGGGLVQPGGSLRLSCAASGFTFSTKWMYWVRQGPGKGLEWVSTIDASGGSTYYADSVKGRFTISRDNTEKKVYLQMNSLESADTAVYYCVRSAGGQFRGRGTQVTVSS
binds | no binding | SR16983-R2P1C12 (VHH) VHH: QVQLVESGGGLVQPGGSLRLSCAASGFTFSMKWMYWVRQGPGKGLEWVSTIDTSGSSTYYADSVKGRFTISRDNSKNTVYLQMNSLESADTAVYYCARSAGGLFRGRGTQVTVSS
binds | no binding | SR16983-R2-P3-F10 (VHH) VHH: QVQLVESGGGLVQPGGSLRLSCKASGFTFSTKWMYWVRQGPGKGLERVAAIDASGGSTYYADSVKGRFTISRDNSDNTVYLQMNSLESADTAVYYCARSEGGQFRGQGTQVTVSS
binds | no binding | SR16983-R2-P3-B01 (VHH) VHH: QLQLVESGGGLVQAGGSLRLSCAASGRTFGTYVIGWFRQAPGKEREFVAAFSRSTGNTVYPDSVKGRFTISRDDAKNTVTLQMNSLKPEDTAVYYCAARASINYNYANWPYWGQGTQVTVSS
binds | no binding | SR16983-R2-P3-F12 (VHH) VHH: QVQLVESGGGLVQAGGSLRLSCAASGRTFGTYVMGWFRQAPGKEREFVAAFSRSTGSTTYADSVKGRFTISRDDAKNTLYLQMNSLKPEDTAVYYCATRASINYNYANWPYWGQGTQVTVSS
binds | no binding | SR16983-R2-P4-F03 (VHH) VHH: QVQLVESGGGLVQAGGSLRLSCAASGRTFGSYVMGWFRQAPGKEREFLAAFSRSTGSTVYADSVKGRFTISKDDAKNTLYLQMNSLKPEDTAVYYCATRASINYNYANWPYWGQGTQVTVSS
binds | no binding | SR16983-R2-P3-E04 (VHH) VHH: QLQLVESGGGLVQAGGSLRLSCAASGRTVGSYVMGWFRQAPGKEREFLAASSRSTGNTVYADSVKGRFSISRDDAKNTLYLQMNSLKPEDTAVYYCATRASINYNYANWPYWGQGTQVTVSS
binds | no binding | SR16983-R2-P4-C02 (VHH) VHH: QVQLVESGGGLVQAGGSLRLSCTTSGSTFSITAGGWYRQAPGKQRELVADIANDGSTTSADSVKGRFTISRDNAKNTVELQMSSLKLEDTAVYYCFVVGKSDSMPRARAYWGQGTQVTVSS
binds | no binding | SR16983-R3-P5-D08 (VHH) VHH: EVQLVESGGGLVQAGGSLRLSCTGSGSTFSVTAGGWYRQAPGKQRELVADIANDGSTTYLDFVKGRFTISRDNAKNSVDLQMNSLKPEDTAVYYCFVVGISDSTPRPRAYWGQGTQVTVSS
binds | no binding | SR16983-R3P2H09 (VHH) VHH: EVQLVESGGGLVQAGGSLRVSCTTSGSTFSITAGGWYRQTPGKERELVADIANDGSTTYANSVKGRFTISRDNAKNTVELQMSSLKLEDTAAYRCFVVGISDSMPRPRAYWGQGTQVTVSS
